Assay results reported in patent US20190144538A1 (TETRAGENETICS, published 2019).

Columns and labels:
[1] = target: human Kv1.3 protein with C-terminal FLAG and 10xHis tags (human) (UniProt P22001); experiment: ELISA, supernatant, dilution 1250
[2] = target: human Kv1.3 protein on cells (human, UniProt P22001 1-575); experiment: cell-based or functional assay
[3] = target: human Kv1.3 protein with C-terminal FLAG and 10xHis tags (human) (UniProt P22001); experiment: ELISA, supernatant, dilution 50
[4] = target: human Kv1.3 protein with C-terminal FLAG and 10xHis tags (human) (UniProt P22001); experiment: ELISA, supernatant, dilution 6250
[5] = target: human Kv1.3 protein with C-terminal FLAG and 10xHis tags (human) (UniProt P22001); experiment: ELISA, supernatant, dilution 250

human Kv1.3 protein with C-terminal FLAG and 10xHis tags (human), sequence (P22001 other isoform, or with tags, fused parts or gaps): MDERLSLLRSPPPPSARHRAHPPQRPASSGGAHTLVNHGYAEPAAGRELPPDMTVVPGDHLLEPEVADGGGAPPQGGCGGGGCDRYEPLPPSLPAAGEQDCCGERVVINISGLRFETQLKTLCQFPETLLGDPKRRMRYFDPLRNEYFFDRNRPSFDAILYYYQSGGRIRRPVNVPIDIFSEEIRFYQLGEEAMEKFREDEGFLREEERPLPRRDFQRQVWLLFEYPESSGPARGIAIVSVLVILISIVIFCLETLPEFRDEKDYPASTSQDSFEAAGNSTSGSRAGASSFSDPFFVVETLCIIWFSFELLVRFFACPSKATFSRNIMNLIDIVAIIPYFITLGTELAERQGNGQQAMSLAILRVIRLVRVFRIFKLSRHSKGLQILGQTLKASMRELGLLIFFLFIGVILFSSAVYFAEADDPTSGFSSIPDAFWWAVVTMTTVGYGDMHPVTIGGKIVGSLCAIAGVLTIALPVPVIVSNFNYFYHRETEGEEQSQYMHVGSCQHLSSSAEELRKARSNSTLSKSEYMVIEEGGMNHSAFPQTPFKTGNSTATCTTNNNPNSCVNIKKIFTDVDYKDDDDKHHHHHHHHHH
human Kv1.3 protein on cells, sequence (P22001 whole entry): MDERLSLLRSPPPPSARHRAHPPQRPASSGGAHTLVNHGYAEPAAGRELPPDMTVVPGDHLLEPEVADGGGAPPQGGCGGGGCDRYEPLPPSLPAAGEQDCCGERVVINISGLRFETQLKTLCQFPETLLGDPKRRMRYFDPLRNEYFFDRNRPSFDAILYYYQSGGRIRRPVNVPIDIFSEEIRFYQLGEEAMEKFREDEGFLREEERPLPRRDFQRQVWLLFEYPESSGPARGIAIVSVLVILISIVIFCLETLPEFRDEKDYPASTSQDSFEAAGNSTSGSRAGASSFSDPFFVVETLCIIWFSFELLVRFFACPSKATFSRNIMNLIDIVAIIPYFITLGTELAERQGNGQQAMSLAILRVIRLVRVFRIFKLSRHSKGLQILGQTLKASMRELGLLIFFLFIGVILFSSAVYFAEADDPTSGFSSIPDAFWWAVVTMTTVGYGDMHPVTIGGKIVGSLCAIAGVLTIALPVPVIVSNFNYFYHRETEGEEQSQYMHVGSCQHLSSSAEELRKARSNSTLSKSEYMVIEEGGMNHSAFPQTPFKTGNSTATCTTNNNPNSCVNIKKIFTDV

| ELISA signal [1] | IC50, dose-response of Kv1.3 current block (whole-cell patch clamp) [2] | ELISA signal [3] | ELISA signal [4] | ELISA signal [5] | Binder |
| --- | --- | --- | --- | --- | --- |
| 0.077 | 6 nM | 0.077 | 0.084 | 0.074 | 19724p1.E6 (Fc fusion, not shown: small tags and cut ends; a dimerising Fc or GST) scFv (part 1 of 2): ALTQPASVSANLGETVEITCSGGYSDDGSYYYGWYQQKSPGSAPVTVIYENNKRPSDIPSRFSGSLSGSTNTLTITGVRAEDEAVYYCGSWDSSAGIFGAGTTLTVL scFv (part 2 of 2): MAAVTLDESGGGLQTPGGTLSLVCKASGFTFSSHGMQWVRQAPGKGLEWVAGISRDGSRTRYGAAVKGRATISRDNGQSTVRLQLNNLRAEDTAIYFCAKSAYECDGYSCWTFIAGSIDAWGHGTEVIVS |
| – | 109 nM | – | – | – | 1A3 (Fc fusion, not shown: small tags and cut ends; a dimerising Fc or GST) scFv (part 1 of 2): LDIQMTQSPSSVTASVGEKVTINCKSSQSVVSASNQKSYLNWYQQRPGQSPRLLIYYASTQELGIPDRFSGSGSTTDFTLTISSVQPEDAAVYYCQQAYSAPYNFGSGTRLEIK scFv (part 2 of 2): QVQLQESGGGLVQPGGSLRLSCAASGFTFSINGMSWVRQAPGKEVEWVSSINSGGEITNYRDSVKGRFTISRDNVKNTLYLQMNSLKPEDTAFYHCVTGIVAYDYWGQGTQVTVSS |
